Measurements taken from patent US20180346580A1 (INTERVET, published 2018).
Where “and” joins values, the source holds several entries; their conditions need not be identical. Equal values may be shown once.

B1: canine IL-4 (R&D system, cat #754-CL/CF), biotinylated (ligand, UniProt O77762 25-132, looked up)
chain: HNFNITIKEIIKMLNILTARNDSCMELTVKDVFTAPKNTSDKEIFCRAATVLRQIYTHNCSNRYLRGLYRNLSSMANKTCSMNEIKKSTLKDFLERLKVIMQKKYYRH
modifications: biotinylated with Lightning-Link Biotin Conjugation Kit Type A
notes: Purchased protein; also called canine interleukin-4; biotinylated canine IL-4
B3: canine IL-4 receptor alpha chain (full length) expressed on the surface of CHO DG44 cells (receptor)
chain: VKVLHEPSCFSDYISTSVCQWKMDHPTNCSAELRLSYQLDFMGSENHTCVPENREDSVCVCSMPIDDAVEADVYQLDLWAGQQLLWSGSFQPSKHVKPRTPGNLTVHPNISHTWLLMWTNPYPTENHLHSELTYMVNVSNDNDPEDFKVYNVTYMGPTLRLAASTLKSGASYSARVRAWAQTYNSTWSDWSPSTTWLNYYEPWEQHLPLGVSISCLVILAICLSCYFSIIKIKKGWWDQIPNPAHSPLVAIVIQDSQVSLWGKRSRGQEPAKCPHWKTCLTKLLPCLLEHGLGREEESPKTAKNGPLQGPGKPAWCPVEVSKTILWPESISVVQCVELSEAPVDNEEEEEVEEDKRSLCPSLEGSGGSFQEGREGIVARLTESLFLDLLGGENGGFCPQGLEESCLPPPSGSVGAQMPWAQFPRAGPRAAPEGPEQPRRPESALQASPTQSAGSSAFPEPPPVVTDNPAYRSFGSFLGQSSDPGDGDSDPELADRPGEADPGIPSAPQPPEPPAALQPEPESWEQILRQSVLQHRAAPAPGPGPGSGYREFTCAVKQGSAPDAGGPGFGPSGEAGYKAFCSLLPGGATCPGTSGGEAGSGEGGYKPFQSLTPGCPGAPTPVPVPLFTFGLDTEPPGSPQDSLGAGSSPEHLGVEPAGKEEDSRKTLLAPEQATDPLRDDLASSIVYSALTCHLCGHLKQWHDQEERGKAHIVPSPCCGCCCGDRSSLLLSPLRAPNVLPGGVLLEASLSPASLVPSGVSKEGKSSPFSQPASSSAQSSSQTPKKLAVLSTEPTCMSAS
notes: also called cIL-4Rα; CHO-cIL-4Rα

Legend:
[1] = molecular target: B3; test: flow cytometry, cell-based CHO-cIL-4Rα binding assay
[2] = molecular target: B3; test: flow cytometry, binding to CHO-cIL-4Rα cells
[3] = molecular target: B3; test: flow cytometry ligand blockade on CHO-cIL-4Rα cells; competitor biotinylated canine IL-4 at 0.32 µg/mL; one of two separate studies
Experimental: Procedure: [0247] 1. CHO-DH44-canIL-4Rα cell grown to 2-4 ×10⁶ cells/mL with more than 96% viability. [0248] 2. The cells were spun down, the supernatant discarded, and the cells were suspended in FACS buffer to 2×10⁷ cells/mL. [0249] 3. The cells were distributed into a U-shape 96-well plate, 50 μl each well. [0250] 4. The anti-canine IL-4Rα mAbs in FACS buffer was diluted three-fold on a 96-well plate from top down to bottom well, starting at 50 μg/mL. [0251] 5. 50 μl of each diluted Ab was transferred into the cell plate and then incubated on ice for 30 min. [0252] 6. The cells were washed twice with FACS buffer. [0253] 7. The cells were resuspended into 100 μl of biotinylated canine IL-4 at 0.32 μg/mL in FACS buffer and incubated on ice for 30 min. [0254] 8. The cells were washed twice with FACS buffer. [0255] 9. The cells were responded into 100 μl of R-phycoerythin conjugated Streptavidin (1:1000 dilution) in FACS buffer and incubated on ice for 30 min. [0256] 10. The cells were washed twice with FACS buffer. [0257] 11. The cells were brought up to 300 μl in FACS buffer. [0258] 12. 10,000 cells were read for each sample by BD Accuri-C6. [0259] 13. The resulting readout were analyzed by FlowJo to get the mean fluorescent intensity (MFI).

[4] = molecular target: B1; test: FACS, biotinylated canine IL-4 on CHO cells expressing canine IL-4Rα

## B1
[1]
  EC50: 25 nM

B2: mouse anti-canine IL-4Rα monoclonal antibody 11H2 (antibody, V domains shown)
VH: DVKLVESGGGLVQPGGSLKLSCAASGFTFSDYYMYWVRQTPEKRLEWVAYVSSGGGSIYYPDTVKGRFTISRDNAKNTLYLQMSRLKSEDTAMYYCARHGSPFGSSRGAWFAYWGQGTLVTVSA
VL: DIQMTQSPASLSASVGETVTITCRASENIYSYLAWYQQKQGKSPQLLVYNAKTLAEGVPSRFSGSGSGTQFSLKINSLQPEDFGNYYCQHYDGFPFTFGGGTKLELK
notes: Hybridoma-derived mouse antibody; also called mAb 11H2
[2]
  EC50: 1.2 nM
[3]
  IC50: 1.7 nM and 1 nM

## B3
[4]
  binding result: binds
